Results on one molecule are retold here after publication PMC12287357 (2025).

The target of the experiment is SteE_pS141pY143. In words: BLI. In general terms: In BLI a coated tip is dipped into the sample, and binding shifts an interference pattern.

B1: recombinant His6-STAT3^127-715 (domain or fragment)
chain: GQANHPTAAVVTEKQQMLEQHLQDVRKRVQDLEQKMKVVENLQDDFDFNYKTLKSQGDMQDLNGNNQSVTRQKMQQLEQMLTALDQMRRSIVSELAGLLSAMEYVQKTLTDEELADWKRRQQIACIGGPPNICLDRLENWITSLAESQLQTRQQIKKLEELQQKVSYKGDPIVQHRPMLEERIVELFRNLMKSAFVVERQPCMPMHPDRPLVIKTGVQFTTKVRLLVKFPELNYQLKIKVCIDKDSGDVAALRGSRKFNILGTNTKVMNMEESNNGSLSAEFKHLTLREQRCGNGGRANCDASLIVTEELHLITFETEVYHQGLKIDLETHSLPVVVISNICQMPNAWASILWYNMLTNNPKNVNFFTKPPIGTWDQVAEVLSWQFSSTTKRGLSIEQLTTLAEKLLGPGVNYSGCQITWAKFCKENMAGKGFSFWVWLDNIIDLVKKYILALWNEGYIMGFISKERERAILSTKPPGTFLLRFSESSKEGGVTFTWVEKDISGKTQIQSVEPYTKQQLNNMSFAEIIMGYKIMDATNILVSPLVYLYPDIPKEEAFGKYCRPESQEHPEADPGSAAPYLKTKFICVTP
For orientation: Kd means the constant that tells how readily two partners part at equilibrium. Higher therefore signals weaker binding. On to B1, for which binding was characterised by a dissociation constant (Kd) of 1400 nM.
